Measurements as given in publication PMC3564530 (Molecular Biology of the Cell, 2013).

Biological target: recombinant his6-tagged linear penta-Ub (Ub5) (UniProt P0CG48)
Test: pull-down

recombinant his6-tagged linear penta-Ub (Ub5), sequence (P0CG48 1-380): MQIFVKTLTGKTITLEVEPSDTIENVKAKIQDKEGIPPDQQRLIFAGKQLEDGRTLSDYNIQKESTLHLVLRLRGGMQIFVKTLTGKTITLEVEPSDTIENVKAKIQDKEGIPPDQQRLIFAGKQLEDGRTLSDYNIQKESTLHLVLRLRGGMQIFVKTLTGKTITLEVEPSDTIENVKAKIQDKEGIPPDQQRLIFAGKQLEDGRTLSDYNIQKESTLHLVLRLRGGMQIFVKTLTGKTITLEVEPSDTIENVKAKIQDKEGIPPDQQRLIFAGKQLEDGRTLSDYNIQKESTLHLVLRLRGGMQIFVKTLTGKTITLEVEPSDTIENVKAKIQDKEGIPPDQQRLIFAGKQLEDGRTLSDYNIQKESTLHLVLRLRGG

binding result: binds
B1: recombinant purified GST-CIN exon 2 (domain or fragment)
chain: TGSLAAAVETASGRQALVVGKPSPYMFECITENFSIDPARTLMVGDRLETDILFGHRCGMTTVLTLTGVSRLEEAQAYLAAGQHDLVPHYYVESIADLTEGLED
